# Measured values as given in US20250163117A1 (CURE GENETICS, published 2025).
# T1: human intermediate-affinity IL-2 receptor IL-2Rβγ on cells (human, UniProt P14784 27-551; P31785 23-369)
# T1 sequence (looked up) 1: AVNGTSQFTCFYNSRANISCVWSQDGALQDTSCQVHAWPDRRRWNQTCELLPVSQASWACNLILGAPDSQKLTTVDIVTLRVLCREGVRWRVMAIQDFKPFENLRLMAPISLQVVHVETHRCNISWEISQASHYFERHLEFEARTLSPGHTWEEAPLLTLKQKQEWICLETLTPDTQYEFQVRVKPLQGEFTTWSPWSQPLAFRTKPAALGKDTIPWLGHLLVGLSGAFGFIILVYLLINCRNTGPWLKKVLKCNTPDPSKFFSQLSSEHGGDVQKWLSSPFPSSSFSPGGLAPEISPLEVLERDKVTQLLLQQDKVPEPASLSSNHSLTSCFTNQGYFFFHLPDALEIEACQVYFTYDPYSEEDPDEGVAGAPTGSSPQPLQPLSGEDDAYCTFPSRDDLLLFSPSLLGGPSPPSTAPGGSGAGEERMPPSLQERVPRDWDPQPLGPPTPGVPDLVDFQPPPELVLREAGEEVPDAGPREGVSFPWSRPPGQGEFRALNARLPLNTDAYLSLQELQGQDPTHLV
# T1 sequence (looked up) 2: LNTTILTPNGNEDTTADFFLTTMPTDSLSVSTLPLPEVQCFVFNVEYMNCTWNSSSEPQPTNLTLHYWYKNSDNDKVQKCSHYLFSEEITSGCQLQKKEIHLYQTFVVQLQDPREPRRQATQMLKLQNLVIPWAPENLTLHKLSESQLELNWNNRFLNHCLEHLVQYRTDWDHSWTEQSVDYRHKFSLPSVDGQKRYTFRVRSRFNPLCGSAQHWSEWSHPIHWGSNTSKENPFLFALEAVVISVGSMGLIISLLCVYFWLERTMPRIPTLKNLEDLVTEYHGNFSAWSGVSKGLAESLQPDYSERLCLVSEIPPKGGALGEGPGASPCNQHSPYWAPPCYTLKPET
# T2: mouse high-affinity IL-2 receptor IL-2Rαβγ on cells (mouse, UniProt P01590 22-268; P16297 27-539; P34902 23-369)
# T2 sequence (looked up) 1: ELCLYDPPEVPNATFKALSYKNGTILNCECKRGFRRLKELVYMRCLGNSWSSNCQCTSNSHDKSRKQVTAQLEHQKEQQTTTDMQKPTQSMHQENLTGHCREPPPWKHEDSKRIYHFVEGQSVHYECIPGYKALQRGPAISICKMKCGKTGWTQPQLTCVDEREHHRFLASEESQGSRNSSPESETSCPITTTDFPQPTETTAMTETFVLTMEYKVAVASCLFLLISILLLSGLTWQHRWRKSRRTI
# T2 sequence (looked up) 2: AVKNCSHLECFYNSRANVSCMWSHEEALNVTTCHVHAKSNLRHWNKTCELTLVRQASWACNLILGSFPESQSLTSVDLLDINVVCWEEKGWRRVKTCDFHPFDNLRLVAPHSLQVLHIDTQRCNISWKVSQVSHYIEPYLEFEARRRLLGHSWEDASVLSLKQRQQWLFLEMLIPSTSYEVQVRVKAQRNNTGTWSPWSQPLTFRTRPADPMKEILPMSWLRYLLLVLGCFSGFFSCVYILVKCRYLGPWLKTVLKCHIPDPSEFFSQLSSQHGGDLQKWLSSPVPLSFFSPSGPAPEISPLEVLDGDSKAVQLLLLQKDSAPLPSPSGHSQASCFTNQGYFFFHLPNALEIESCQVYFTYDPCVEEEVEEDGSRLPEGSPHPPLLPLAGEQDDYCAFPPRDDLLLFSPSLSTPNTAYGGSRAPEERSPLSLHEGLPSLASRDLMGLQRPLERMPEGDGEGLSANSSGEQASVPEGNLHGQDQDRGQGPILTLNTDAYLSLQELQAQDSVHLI
# T2 sequence (looked up) 3: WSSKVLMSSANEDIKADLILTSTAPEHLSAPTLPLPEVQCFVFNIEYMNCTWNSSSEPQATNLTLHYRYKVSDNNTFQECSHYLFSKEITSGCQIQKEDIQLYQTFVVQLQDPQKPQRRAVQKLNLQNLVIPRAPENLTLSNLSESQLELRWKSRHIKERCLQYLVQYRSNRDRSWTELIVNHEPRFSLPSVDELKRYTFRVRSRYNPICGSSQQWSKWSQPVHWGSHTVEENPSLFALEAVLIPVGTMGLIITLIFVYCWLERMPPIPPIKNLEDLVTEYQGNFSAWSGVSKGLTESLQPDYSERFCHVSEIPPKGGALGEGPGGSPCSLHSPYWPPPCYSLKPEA
# T3: mouse intermediate-affinity IL-2 receptor IL-2Rβγ on cells (mouse, UniProt P16297 27-539; P34902 23-369)
# T3 sequence (looked up) 1: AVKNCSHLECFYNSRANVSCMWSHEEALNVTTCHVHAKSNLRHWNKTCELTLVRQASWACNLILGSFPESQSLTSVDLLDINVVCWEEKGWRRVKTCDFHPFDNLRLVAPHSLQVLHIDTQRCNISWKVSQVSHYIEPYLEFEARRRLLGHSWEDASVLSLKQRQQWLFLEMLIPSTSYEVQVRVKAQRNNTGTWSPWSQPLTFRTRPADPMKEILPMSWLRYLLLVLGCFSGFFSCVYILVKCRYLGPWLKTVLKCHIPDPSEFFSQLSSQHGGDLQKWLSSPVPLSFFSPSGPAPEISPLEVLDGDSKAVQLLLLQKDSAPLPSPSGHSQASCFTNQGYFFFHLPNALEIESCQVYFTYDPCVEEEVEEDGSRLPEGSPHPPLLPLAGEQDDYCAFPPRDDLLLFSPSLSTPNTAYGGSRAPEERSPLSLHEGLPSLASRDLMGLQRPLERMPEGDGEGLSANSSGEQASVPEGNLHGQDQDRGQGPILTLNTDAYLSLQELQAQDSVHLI
# T3 sequence (looked up) 2: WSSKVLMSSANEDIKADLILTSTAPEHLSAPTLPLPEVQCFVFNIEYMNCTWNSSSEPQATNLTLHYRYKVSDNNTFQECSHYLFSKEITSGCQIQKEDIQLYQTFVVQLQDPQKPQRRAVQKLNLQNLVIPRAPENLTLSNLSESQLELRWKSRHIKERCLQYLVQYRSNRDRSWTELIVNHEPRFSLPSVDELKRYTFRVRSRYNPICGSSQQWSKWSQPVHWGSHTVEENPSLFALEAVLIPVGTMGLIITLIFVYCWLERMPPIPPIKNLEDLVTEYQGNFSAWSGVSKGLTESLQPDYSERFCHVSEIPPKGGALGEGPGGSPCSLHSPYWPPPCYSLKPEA
# B1: CP-trIL-2 012 (ligand)
# chain: PTSSSTKKTQLQLEHLLLDLQMILNGINNYKNPLRPRDLISNINVIVLELKGSETTELKHLQSLEEELKDLEEVLNLAQSKNFHTIVEFLNRWITFSQSIISTLT
# notes: H1-H3-H2-H4; loops 1 and 2 removed; de-Ala1, C58S, C125S, P65D
# Tests used:
# Experiment in all cases: cell-based or functional assay
# [1] = molecular target: T1, human intermediate-affinity IL-2 …
# [2] = molecular target: T2, mouse high-affinity IL-2 receptor …
# [3] = molecular target: T3, mouse intermediate-affinity IL-2 …
binder,measurement,setting,value
B1,"EC50 of STAT5 activation, human CD8 T cells (flow cytometry)",[1],18.6 nM
same,"EC50 of STAT5 activation, human NK cells (flow cytometry)",[1],5.11 nM
same,"EC50 of STAT5 activation, mouse Tregs (flow cytometry)",[2],52 nM
same,"EC50 of STAT5 activation, mouse CD8 T cells (flow cytometry)",[3],91.8 nM
same,"EC50 of STAT5 activation, mouse NK cells (flow cytometry)",[3],84 nM
